The source of these data is article doi:10.1101/2024.07.18.604210.

Assay [1] deals with egSepF-CTD G163K (E. gallinarum). Put plainly: AUC.
Assay [2] has as its target saSepF-CTD G145K (S. aureus). Put plainly: AUC.

What is called stoichiometry N is a count of units in the complex or per binding partner.

In turn, egSepF-CTD G163K (domain or fragment) registered a stoichiometry N in assay [1] of 2.

saSepF-CTD G145K (domain or fragment) yielded a stoichiometry N in assay [2] of 2.
